Target: p27 (Kip1), endogenous in breast tissue (human (endogenous in breast tissue …, UniProt P46527 1-198))
Assay: FRET or BRET

Chain of p27 (Kip1), endogenous in breast tissue (human (P46527 whole entry): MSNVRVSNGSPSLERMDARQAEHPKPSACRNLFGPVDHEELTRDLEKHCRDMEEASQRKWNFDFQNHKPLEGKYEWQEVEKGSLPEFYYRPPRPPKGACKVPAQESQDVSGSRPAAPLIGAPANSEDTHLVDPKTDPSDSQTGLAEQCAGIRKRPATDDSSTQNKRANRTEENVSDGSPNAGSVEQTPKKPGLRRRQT

B1: salt-induced kinase-3 (SIK3), endogenous in breast tissue (enzyme, UniProt Q9Y2K2-5 1-1321, looked up)
chain: MAAAAASGAGGAAGAGTGGAGPAGRLLPPPAPGSPAAPAAVSPAAGQPRPPAPASRGPMPARIGYYEIDRTIGKGNFAVVKRATHLVTKAKVAIKIIDKTQLDEENLKKIFREVQIMKMLCHPHIIRLYQVMETERMIYLVTEYASGGEIFDHLVAHGRMAEKEARRKFKQIVTAVYFCHCRNIVHRDLKAENLLLDANLNIKIADFGFSNLFTPGQLLKTWCGSPPYAAPELFEGKEYDGPKVDIWSLGVVLYVLVCGALPFDGSTLQNLRARVLSGKFRIPFFMSTECEHLIRHMLVLDPNKRLSMEQICKHKWMKLGDADPNFDRLIAECQQLKEERQVDPLNEDVLLAMEDMGLDKEQTLQSLRSDAYDHYSAIYSLLCDRHKRHKTLRLGALPSMPRALAFQAPVNIQAEQAGTAMNISVPQVQLINPENQIVEPDGTLNLDSDEGEEPSPEALVRYLSMRRHTVGVADPRTEVMEDLQKLLPGFPGVNPQAPFLQVAPNVNFMHNLLPMQNLQPTGQLEYKEQSLLQPPTLQLLNGMGPLGRRASDGGANIQLHAQQLLKRPRGPSPLVTMTPAVPAVTPVDEESSDGEPDQEAVQSSTYKDSNTLHLPTERFSPVRRFSDGAASIQAFKAHLEKMGNNSSIKQLQQECEQLQKMYGGQIDERTLEKTQQQHMLYQQEQHHQILQQQIQDSICPPQPSPPLQAACENQPALLTHQLQRLRIQPSSPPPNHPNNHLFRQPSNSPPPMSSAMIQPHGAASSSQFQGLPSRSAIFQQQPENCSSPPNVALTCLGMQQPAQSQQVTIQVQEPVDMLSNMPGTAAGSSGRGISISPSAGQMQMQHRTNLMATLSYGHRPLSKQLSADSAEAHSLNVNRFSPANYDQAHLHPHLFSDQSRGSPSSYSPSTGVGFSPTQALKVPPLDQFPTFPPSAHQQPPHYTTSALQQALLSPTPPDYTRHQQVPHILQGLLSPRHSLTGHSDIRLPPTEFAQLIKRQQQQRQQQQQQQQQQEYQELFRHMNQGDAGSLAPSLGGQSMTERQALSYQNADSYHHHTSPQHLLQIRAQECVSQASSPTPPHGYAHQPALMHSESMEEDCSCEGAKDGFQDSKSSSTLTKGCHDSPLLLSTGGPGDPESLLGTVSHAQELGIHPYGHQPTAAFSKNKVPSREPVIGNCMDRSSPGQAVELPDHNGLGYPARPSVHEHHRPRALQRHHTIQNSDDAYVQLDNLPGMSLVAGKALSSARMSDAVLSQSSLMGSQQFQDGENEECGASLGGHEHPDLSDGSQHLNSSCYPSTCITDILLSYKHPEVSFSMEQAGV
For B1, the “FRET activity (fold)” value was 25.2 fold.

From publication PMC9931023 (Journal of Food and Drug Analysis, 2021)
